Target: voltage-dependent anion channel (VDAC) protein (human (endogenous in T47D)) (UniProt P21796)
Experiment: co-IP; VDAC immunoprecipitated from cell lysate (anti-VDAC1/2/3, protein G agarose; lysate first blocked with 10 uM VDAC-binding membrane domain peptide), beads washed with PBS and incubated at RT for 50 min with recombinant HK at pH 7.8; western blots for HK-1, HK-2 and VDAC; band intensities normalized by VDAC bands

Binder | amount co-precipitated at pH 7.8, percent of that at pH 6.2 [%]
recombinant hexokinase 1 (HK-1) (enzyme) MIAAQLLAYYFTELKDDQVKKIDKYLYAMRLSDETLIDIMTRFRKEMKNGLSRDFNPTATVKMLPTFVRSIPDGSEKGDFIALDLGGSSFRILRVQVNHEKNQNVHMESEVYDTPENIVHGSGSQLFDHVAECLGDFMEKRKIKDKKLPVGFTFSFPCQQSKIDEAILITWTKRFKASGVEGADVVKLLNKAIKKRGDYDANIVAVVNDTVGTMMTCGYDDQHCEVGLIIGTGTNACYMEELRHIDLVEGDEGRMCINTEWGAFGDDGSLEDIRTEFDREIDRGSLNPGKQLFEKMVSGMYLGELVRLILVKMAKEGLLFEGRITPELLTRGKFNTSDVSAIEKNKEGLHNAKEILTRLGVEPSDDDCVSVQHVCTIVSFRSANLVAATLGAILNRLRDNKGTPRLRTTVGVDGSLYKTHPQYSRRFHKTLRRLVPDSDVRFLLSESGSGKGAAMVTAVAYRLAEQHRQIEETLAHFHLTKDMLLEVKKRMRAEMELGLRKQTHNNAVVKMLPSFVRRTPDGTENGDFLALDLGGTNFRVLLVKIRSGKKRTVEMHNKIYAIPIEIMQGTGEELFDHIVSCISDFLDYMGIKGPRMPLGFTFSFPCQQTSLDAGILITWTKGFKATDCVGHDVVTLLRDAIKRREEFDLDVVAVVNDTVGTMMTCAYEEPTCEVGLIVGTGSNACYMEEMKNVEMVEGDQGQMCINMEWGAFGDNGCLDDIRTHYDRLVDEYSLNAGKQRYEKMISGMYLGEIVRNILIDFTKKGFLFRGQISETLKTRGIFETKFLSQIESDRLALLQVRAILQQLGLNSTCDDSILVKTVCGVVSRRAAQLCGAGMAAVVDKIRENRGLDRLNVTVGVDGTLYKLHPHFSRIMHQTVKELSPKCNVSFLLSEDGSGKGAALITAVGVRLRTEASS | 143
recombinant hexokinase 2 (HK-2) (enzyme) MIASHLLAYFFTELNHDQVQKVDQYLYHMRLSDETLLEISKRFRKEMEKGLGATTHPTAAVKMLPTFVRSTPDGTEHGEFLALDLGGTNFRVLWVKVTDNGLQKVEMENQIYAIPEDIMRGSGTQLFDHIAECLANFMDKLQIKDKKLPLGFTFSFPCHQTKLDESFLVSWTKGFKSSGVEGRDVVALIRKAIQRRGDFDIDIVAVVNDTVGTMMTCGYDDHNCEIGLIVGTGSNACYMEEMRHIDMVEGDEGRMCINMEWGAFGDDGSLNDIRTEFDQEIDMGSLNPGKQLFEKMISGMYMGELVRLILVKMAKEELLFGGKLSPELLNTGRFETKDISDIEGEKDGIRKAREVLMRLGLDPTQEDCVATHRICQIVSTRSASLCAATLAAVLQRIKENKGEERLRSTIGVDGSVYKKHPHFAKRLHKTVRRLVPGCDVRFLRSEDGSGKGAAMVTAVAYRLADQHRARQKTLEHLQLSHDQLLEVKRRMKVEMERGLSKETHASAPVKMLPTYVCATPDGTEKGDFLALDLGGTNFRVLLVRVRNGKWGGVEMHNKIYAIPQEVMHGTGDELFDHIVQCIADFLEYMGMKGVSLPLGFTFSFPCQQNSLDESILLKWTKGFKASGCEGEDVVTLLKEAIHRREEFDLDVVAVVNDTVGTMMTCGFEDPHCEVGLIVGTGSNACYMEEMRNVELVEGEEGRMCVNMEWGAFGDNGCLDDFRTEFDVAVDELSLNPGKQRFEKMISGMYLGEIVRNILIDFTKRGLLFRGRISERLKTRGIFETKFLSQIESDCLALLQVRAILQHLGLESTCDDSIIVKEVCTVVARRAAQLCGAGMAAVVDRIRENRGLDALKVTVGVDGTLYKLHPHFAKVMHETVKDLAPKCDVSFLQSEDGSGKGAALITAVACRIREAGQR | 213
